Residue numbers refer to the chain shown, from its start. Each block holds one binder with its values, some of them ahead of it.
Tests used:
Human IL-6 [1] = target: T1, Human IL-6 (human, UniProt P05231 30-212); test: Octet bio-layer interferometry; biotinylated IL-6 on streptavidin sensor, then antibody or buffer, then soluble IL-6R1, then gp130 in the presence of IL-6R1; blocked ligand: gp130
T1 construct: also called huIL-6; Interleukin-6
Experimental: (§1) To determine the antibody mechanism of action, mechanistic studies were performed using bio-layer interferometry with an Octet QK instrument (ForteBio; Menlo Park, Calif.). Studies were performed in two different configurations. […] Binding is monitored as an increase in signal.
The IL-6 bound to the sensor was then incubated either with the antibody in question or diluent solution alone.

Mouse IL-6 [2] = target: T2, Mouse IL-6 (mouse, UniProt P08505 25-211); test: cell-based or functional assay
T2 sequence (looked up): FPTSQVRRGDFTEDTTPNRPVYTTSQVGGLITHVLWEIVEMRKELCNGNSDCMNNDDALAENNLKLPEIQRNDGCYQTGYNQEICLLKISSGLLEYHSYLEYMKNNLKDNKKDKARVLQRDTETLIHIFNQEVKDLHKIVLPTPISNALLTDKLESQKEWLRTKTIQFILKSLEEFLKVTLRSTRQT

Cynomolgus monkey IL-6 [3] = target: T3, Cynomolgus monkey IL-6 (cynomolgus monkey, UniProt P79341 28-212, limits assumed); test: cell-based or functional assay
T3 sequence (looked up): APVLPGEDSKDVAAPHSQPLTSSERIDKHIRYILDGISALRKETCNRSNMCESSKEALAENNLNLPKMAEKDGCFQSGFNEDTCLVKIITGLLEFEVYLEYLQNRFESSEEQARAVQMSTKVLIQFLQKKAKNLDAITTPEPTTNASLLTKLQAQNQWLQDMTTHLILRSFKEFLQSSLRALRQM

Human IL-6 [4] = target: T1, Human IL-6; test: cell-based or functional assay
Rat IL-6 [5] = target: T4, Rat IL-6 (rat, UniProt P20607 25-211); test: cell-based or functional assay
T4 sequence (looked up): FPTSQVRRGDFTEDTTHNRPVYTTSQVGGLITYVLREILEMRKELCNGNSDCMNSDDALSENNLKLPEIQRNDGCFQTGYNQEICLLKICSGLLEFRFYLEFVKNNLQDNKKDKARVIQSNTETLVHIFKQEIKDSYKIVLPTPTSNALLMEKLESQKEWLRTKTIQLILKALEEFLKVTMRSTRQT

Mouse IL-6 [6] = target: T2, Mouse IL-6; test: surface plasmon resonance, 25 C, averaged constants
Cynomolgus monkey IL-6 [7] = target: T3, Cynomolgus monkey IL-6; test: as above
Human IL-6 [8] = target: T1, Human IL-6; test: as above
Rat IL-6 [9] = target: T4, Rat IL-6; test: as above
Human IL-6 [10] = target: T1, Human IL-6; test: Octet bio-layer interferometry; antibody captured on anti-human IgG Fc sensor, then IL-6, then soluble IL-6R1, then gp130 in the presence of IL-6R1; ligand whose binding is slowed: gp130
Experimental: as §1
(§2) In the second orientation, the antibody was bound to a biosensor coated with an anti-human IgG1 Fc-specific reagent (ForteBio part number 18-5001). […] All studies were performed in a 200 μL final volume, at 30° C. and 1000 rpm. For these studies, all proteins were diluted using ForteBio's sample diluent buffer (part number 18-5028).

Human IL-6 [11] = target: T1, Human IL-6; test: Octet bio-layer interferometry; antibody captured on anti-human IgG Fc sensor, then IL-6, then soluble IL-6R1, then gp130 in the presence of IL-6R1; blocked ligands: IL-6R1 and gp130
Experimental: as §1, §2

B1: Ab4 (antibody, V domains shown)
VH: QEQLKESGGGLVTPGGTLTLTCTASGFSLNAYYMNWVRQAPGKGLEWIGFITLNNNVAYANWAKGRFTFSKTSTTVDLKMTSPTPEDTATYFCARSRGWGAMGRLDLWGHGTLVTVSS
VL: DPVLTQTPSPVSAPVGGTVSISCQASQSVYENNYLSWFQQKPGQPPKLLIYGASTLDSGVPSRFKGSGSGTQFTLTITDVQCDDAATYYCAGVYDDDSDDAFGGGTEVVVKR
notes: Captured on an anti-human IgG1 Fc sensor
binding result (Human IL-6 [1]): binds

B2: Ab3 (antibody, V domains shown)
VH: QSLEESGGRLVTPGTPLTLTCTASGFSLSVYYMNWVRQAPGKGLEWIGFITMSDNINYASWAKGRFTISKTSTTVDLKMTSPTTEDTATYFCARSRGWGTMGRLDLWGPGTLVTVSS
VL: B1 VL with D1A, P2A, P14A, E31D, D57A, K65V, D100N
notes: as for B1
binding result (Human IL-6 [1]): binds

B3: Ab1 (antibody, human IgG1, kappa, N297A, V domains shown)
VH: EVQLVESGGGLVQPGGSLRLSCAASGFSLSNYYVTWVRQAPGKGLEWVGIIYGSDETAYATSAIGRFTISRDNSKNTLYLQMNSLRAEDTAVYYCARDDSSDWDAKFNLWGQGTLVTVSS
VL: AIQMTQSPSSLSASVGDRVTITCQASQSINNELSWYQQKPGKAPKLLIYRASTLASGVPSRFSGSGSGTDFTLTISSLQPDDFATYYCQQGYSLRNIDNAFGGGTKVEIKR
notes: Humanized from a rabbit antibody, IgG1 kappa, aglycosylated, produced in Pichia pastoris; also called clazakizumab; ALD518
IC50 (pM), T1165 cell proliferation stimulated by the species' IL-6 (Mouse IL-6 [2]): 1840 pM | IC50 (pM), T1165 cell proliferation stimulated by the species' IL-6 (Cynomolgus monkey IL-6 [3]): 12 pM | IC50 (pM), T1165 cell proliferation stimulated by the species' IL-6 (Human IL-6 [4]): 13 pM | IC50 (pM), T1165 cell proliferation stimulated by the species' IL-6 (Rat IL-6 [5]): 2060 pM | Kd (Mouse IL-6 [6]): 0.4 nM | koff (Mouse IL-6 [6]): 0.0004 s⁻¹ | kon (Mouse IL-6 [6]): 1.1e+06 M⁻¹ s⁻¹ | Kd (Cynomolgus monkey IL-6 [7]): 0.031 nM | koff (Cynomolgus monkey IL-6 [7]): 3e-06 s⁻¹ | kon (Cynomolgus monkey IL-6 [7]): 96000 M⁻¹ s⁻¹ | Kd (Human IL-6 [8]): 0.004 nM | koff (Human IL-6 [8]): 5e-07 s⁻¹ | kon (Human IL-6 [8]): 160000 M⁻¹ s⁻¹ | Kd (Rat IL-6 [9]): 1.4 nM | koff (Rat IL-6 [9]): 0.0022 s⁻¹ | kon (Rat IL-6 [9]): 1.6e+06 M⁻¹ s⁻¹

The remaining lines, values ahead:

binding result (Human IL-6 [10]): binds
B4: Ab2 (antibody, V domains shown)
VH: QEQLKESGGRLVTPGTPLTLTCTASGFSLNDHAMGWVRQAPGKGLEYIGFINSGGSARYASWAEGRFTISRTSTTVDLKMTSLTTEDTATYFCVRGGAVWSIHSFDPWGPGTLVTVSS
VL: AYDMTQTPASVEVAVGGTVTINCQASETIYSWLSWYQQKPGQPPKLLIYQASDLASGVPSRFSGSGAGTEYTLTISGVQCDDAATYYCQQGYSGSNVDNVFGGGTEVVVKR
notes: The entry may carry a leader

binding result (Human IL-6 [11]): binds
B5: Ab6 (antibody, V domains shown)
VH: QSVEESGGRLVTPGTPLTLTCTVSGIDLSDYAMSWVRQAPGKGLEWIGIIYAGSGSTWYASWAKGRFTISKTSTTVDLKITSPTTEDTATYFCARDGYDDYGDFDRLDLWGPGTLVTVSS
VL: AAVLTQTPSPVSVPVGGTVTIKCQSSQSVYNNFLSWYQQKPGQPPKLLIYQASKLASGVPDRFSGSGSGTQFTLTISGVQCDDAATYYCLGGYDDDADNAFGGGTEVVVKR
notes: as for B1

— US20160130340A1 (ALDERBIO, published 2016)
